We go through four molecules from publication PMC12279963 (Nature Communications, 2025).

The target in assay [1] is T1, EcPBP1b^82-804 (pSI199), TM domain substituted with an N-terminal cysteine acylation site, ALFA-tagged (E. coli) (UniProt P02919).
T1 sequence (P02919 82-804, looked up): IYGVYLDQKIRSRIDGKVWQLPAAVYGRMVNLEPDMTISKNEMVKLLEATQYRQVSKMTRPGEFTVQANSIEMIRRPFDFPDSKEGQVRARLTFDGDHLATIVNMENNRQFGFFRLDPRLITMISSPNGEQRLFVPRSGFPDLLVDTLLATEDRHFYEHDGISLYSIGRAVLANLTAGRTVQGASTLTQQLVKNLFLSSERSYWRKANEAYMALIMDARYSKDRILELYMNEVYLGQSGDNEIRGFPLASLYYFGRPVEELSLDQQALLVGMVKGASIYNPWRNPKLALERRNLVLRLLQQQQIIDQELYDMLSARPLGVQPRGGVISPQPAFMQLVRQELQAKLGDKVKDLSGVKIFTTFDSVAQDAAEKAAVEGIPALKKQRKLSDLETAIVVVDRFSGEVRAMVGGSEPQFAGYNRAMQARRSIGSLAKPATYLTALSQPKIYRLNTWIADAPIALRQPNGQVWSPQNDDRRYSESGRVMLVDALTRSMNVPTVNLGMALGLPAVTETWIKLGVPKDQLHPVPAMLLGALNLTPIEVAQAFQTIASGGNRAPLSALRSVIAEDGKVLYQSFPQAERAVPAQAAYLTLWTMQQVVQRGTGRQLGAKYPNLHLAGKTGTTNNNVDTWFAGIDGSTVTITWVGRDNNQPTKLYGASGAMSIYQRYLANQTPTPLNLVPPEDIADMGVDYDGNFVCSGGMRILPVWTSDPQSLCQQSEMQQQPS
As to the kind of experiment: BLI.

Assay [2] has as its target T2, EcPBP1b^C794A (pSI233), truncation 58-804, Cy3-labelled at C776 (E. coli, UniProt P02919 58-804, C794A, Cy3 (sulfo-Cy3-maleimide) on C776).
T2 sequence (looked up): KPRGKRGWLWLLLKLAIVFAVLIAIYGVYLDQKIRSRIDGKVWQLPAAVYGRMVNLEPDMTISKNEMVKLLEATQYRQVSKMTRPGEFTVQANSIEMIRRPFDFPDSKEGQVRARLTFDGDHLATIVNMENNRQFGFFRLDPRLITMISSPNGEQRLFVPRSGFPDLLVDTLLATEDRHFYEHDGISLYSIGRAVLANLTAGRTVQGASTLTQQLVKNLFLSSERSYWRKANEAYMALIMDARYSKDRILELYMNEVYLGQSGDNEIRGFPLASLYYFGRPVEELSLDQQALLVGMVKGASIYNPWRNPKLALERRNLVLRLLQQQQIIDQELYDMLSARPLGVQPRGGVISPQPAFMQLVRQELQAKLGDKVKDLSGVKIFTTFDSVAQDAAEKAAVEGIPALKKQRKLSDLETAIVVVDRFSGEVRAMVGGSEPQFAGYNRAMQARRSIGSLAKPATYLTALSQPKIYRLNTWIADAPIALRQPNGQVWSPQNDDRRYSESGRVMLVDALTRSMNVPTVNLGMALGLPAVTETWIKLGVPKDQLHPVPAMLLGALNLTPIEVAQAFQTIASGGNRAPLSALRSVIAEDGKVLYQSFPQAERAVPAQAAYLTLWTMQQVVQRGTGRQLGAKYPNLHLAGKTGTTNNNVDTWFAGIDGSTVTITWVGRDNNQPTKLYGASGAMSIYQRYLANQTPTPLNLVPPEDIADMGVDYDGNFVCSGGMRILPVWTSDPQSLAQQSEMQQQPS
The assay is described as follows: FRET or BRET.

Residue numbers refer to the chain shown, from its start. In names and notes the source's numbering stands.

B1: LpoB^64-213 (pSI259), wild type (domain or fragment)
chain: HEDQTAPPAPHIRHYDWNGAMQPMVSKMLGADGVTAGSVLLVDSVNNRTNGSLNAAEATETLRNALANNGKFTLVSAQQLSMAKQQLGLSPQDSLGTRSKAIGIARNVGAHYVLYSSASGNVNAPTLQMQLMLVQTGEIIWSGKGAVSQQ
In assay [1], B1 gave a Kd of 915 nM.

B2: LpoB^64-213 S157V Y178W (domain or fragment)
chain: B1 chain with S94V, Y115W
The molecule B2 had a Kd in assay [1] of 24 nM.

B3: LpoB^64-213 A164S S180I S157V (combined) (domain or fragment)
chain: B1 chain with S94V, A101S, S117I
Consider B3, for which the Kd in assay [1] came out at 9 nM.

B4: EcLpoB^S211C (pSI204), truncation 21-213, Cy5-labelled (natural protein, E. coli, UniProt P0AB38 21-213, looked up)
chain: VGQREPAPVEEVKPAPEQPAEPQQPVPTVPSVPTIPQQPGPIEHEDQTAPPAPHIRHYDWNGAMQPMVSKMLGADGVTAGSVLLVDSVNNRTNGSLNAAEATETLRNALANNGKFTLVSAQQLSMAKQQLGLSPQDSLGTRSKAIGIARNVGAHYVLYSSASGNVNAPTLQMQLMLVQTGEIIWSGKGAVCQQ
modifications: Cy5 (sulfo-Cy5-maleimide) on C211
Regarding B4, the Kd in assay [2] is 900 nM.

As usually defined, the Kd is the free concentration of one partner at which half of the binding sites on the other are occupied at equilibrium, for simple one-to-one binding. Higher therefore signals lower affinity.
